For one molecule, induction of apoptosis results are on record in patent US20070202134A1, “Muc1 Antagonist Enhancement of Death Receptor Ligand-Induced Apoptosis” (priority 2004, published 2007).

For the test, the system named is HCT116/vector cells. Kind of test: Apoptosis by analysis of sub-G1 DNA, HCT116/vector cells. Type of test: cell-based, Human. As to conditions: 100 ng/ml TRAIL for 14 hr, without adding CHX. On the procedure:
Methods. Apoptotic cells were quantified by analysis of sub-G1 DNA and TUNEL staining. To assess sub-G1 DNA content, cells were harvested, washed with PBS, fixed with 80% ethanol, and incubated in PBS containing 20 ng/ml RNase (Roche) for 60 min at 37° C. Cells were then stained with […] propidium iodide (Sigma) for 30 min at room temperature in the dark. DNA content was analyzed by flow cytometry (EPICS XL-MCL, Coulter Corp.). Apoptotic cells with DNA fragmentation were detected by staining with the In Situ cell death detection kit (TUNEL; Roche Applied Science) and visualized by confocal microscopy (ZEISS LSM510). After staining, cells were analyzed by flow cytometry. Other experimental procedures and methods were as described in Example 1.

B1: TRAIL: TNF-related apoptosis-inducing ligand, rhTRAIL (Calbiochem-Novabiochem) (protein, UniProt P50591 1-281, looked up)
Tumor necrosis factor ligand …: MAMMEVQGGPSLGQTCVLIVIFTVLLQSLCVAVTYVYFTNELKQMQDKYSKSGIACFLKEDDSYWDPNDEESMNSPCWQVKWQLRQLVRKMILRTSEETISTVQEKQQNISPLVRERGPQRVAAHITGTRGRSNTLSSPNSKNEKALGRKINSWESSRSGHSFLSNLHLRNGELVIHEKGFYYIYSQTYFRFQEEIKENTKNDKQMVQYIYKYTSYPDPILLMKSARNSCWSKDAEYGLYSIYQGGIFELKENDRIFVSVTNEHLIDMDHEASFFGAFLVG
On to B1, for which the induction of apoptosis entry is listed as “effective in inducing apoptosis”.
